The values that follow come from patent US20250339554A1 (BROAD INSTITUTE, published 2025).

Data set [1] deals with the molecule itself. The data set can be described thus: electron microscopy; self-assembly.
Data set [2] deals with the molecule itself. The data set can be described thus: size-exclusion chromatography of purified PNMA1; self-assembly.
Data set [3] concerns the molecule itself. Nature of the data set: TEM of capsids purified from E. coli; self-assembly.
Data set [4] concerns the molecule itself. Nature of the data set: SEC, iodixanol gradient and TEM of particles from HEK293 supernatant; self-assembly into capsids.

B1: PNMA7A (other)
chain: MASIIARVGNSRRLNAPLPPWAHSMLRSLGRSLGPIMASMADRNMKLFSGRVVPAQGEETFENWLTQVNGVLPDWNMSEEEKLKRLMKTLRGPAREVMRVLQATNPNLSVADFLRAMKLVFGESESSVTAHGKFFNTLQAQGEKASLYVIRLEVQLQNAIQAGIIAEKDANRTRLQQLLLGGELSRDLRLRLKDFLRMYANEQERLPNFLELIRMVREEEDWDDAFIKRKRPKRSESMVERAVSPVAFQGSPPIVIGSADCNVIEIDDTLDDSDEDVILVESQDPPLPSWGAPPLRDRARPQDEVLVIDSPHNSRAQFPSTSGGSGYKNNGPGEMRRARKRKHTIRCSYCGEEGHSKETCDNESDKAQVFENLIITLQELTHTEMERSRVAPGEYNDFSEPL
notes: also called ZCCHC12
Regarding B1, the binding result in data set [1] is “binds”.

B2: PNMA1 (other)
chain: MAMTLLEDWCRGMDVNSQRALLVWGIPVNCDEAEIEETLQAAMPQVSYRMLGRMFWREENAKAALLELTGAVDYAAIPREMPGKGGVWKVLFKPPTSDAEFLERLHLFLAREGWTVQDVARVLGFQNPTPTPGPEMPAEMLNYILDNVIQPLVESIWYKRLTLFSGRDIPGPGEETFDPWLEHTNEVLEEWQVSDVEKRRRLMESLRGPAADVIRILKSNNPAITTAECLKALEQVFGSVESSRDAQIKFLNTYQNPGEKLSAYVIRLEPLLQKVVEKGAIDKDNVNQARLEQVIAGANHSGAIRRQLWLTGAGEGPAPNLFQLLVQIREEEAKEEEEEAEATLLQLGLEGHF
notes: Self-assembling capsid protein
Regarding B2, in data set [2], the binding result is recorded as “binds”.

B3: PNMA7B (other)
chain: MASITACVGNSRQQNAPLPPWAHSMLRSLGRSLCPLVVKMAERNMKLFSGRVVPAQGKETFENWLIQVNEVLPDWSMSEEEKLKRLMKTLRGPAREVMRLLQAANPNLSVADFLRAMKLVFGESESSVTAHGKFFNTLQAQGEKASLYVIRLEVQLQNAIQAGILAEKDANQTRLQQLLLGAELNRDLRFRLKHLLRMYANKQERLPNFLELIKMIREEEDWDDAFIKRKRPKRSEPIMERAASPVAFQGAQPIAISSADCNCNVIEIDDTLDDSDEDVILVVSLYPSLTPTGAPPFRGRARPLDQVLVIDSPNNSGAQSLSTSGGSGYKNDGPGNIRRARKRKYTTRCSYCGEEGHSKETCDNESNKAQVFENLIITLQELTHTEERSKEVPGEHSDASEPQ
notes: Capsids were purified from E. coli; also called ZCCHC18
Turning to B3, in data set [3], the binding result is given as “binds”.

B4: PNMA2 (other)
chain: MALALLEDWCRIMSVDEQKSLMVTGIPADFEEAEIQEVLQETLKSLGRYRLLGKIFRKQENANAVLLELLEDTDVSAIPSEVQGKGGVWKVIFKTPNQDTEFLERLNLFLEKEGQTVSGMFRALGQEGVSPATVPCISPELLAHLLGQAMAHAPQPLLPMRYRKLRVFSGSAVPAPEEESFEVWLEQATEIVKEWPVTEAEKKRWLAESLRGPALDLMHIVQADNPSISVEECLEAFKQVFGSLESRRTAQVRYLKTYQEEGEKVSAYVLRLETLLRRAVEKRAIPRRIADQVRLEQVMAGATLNQMLWCRLRELKDQGPPPSFLELMKVIREEEEEEASFENESIEEPEERDGYGRWNHEGDD
notes: Self-assembling capsid protein; It was tested as particles from HEK293 supernatant (HA-tag pulldown) and as monomers and capsids assembled in vitro
Consider B4, for which the binding result in data set [4] is “binds”.

B5: PNMA5 (other)
chain: MALTLLEDWCKGMDMDPRKALLIVGIPMECSEVEIQDTVKAGLQPLCAYRVLGRMFRREDNAKAVFIELADTVNYTTLPSHIPGKGGSWEVVVKPRNPDDEFLSRLNYFLKDEGRSMTDVARALGCCSLPAESLDAEVMPQVRSPPLEPPKESMWYRKLKVFSGTASPSPGEETFEDWLEQVTEIMPIWQVSEVEKRRRLLESLRGPALSIMRVLQANNDSITVEQCLDALKQIFGDKEDFRASQFRFLQTSPKIGEKVSTFLLRLEPLLQKAVHKSPLSVRSTDMIRLKHLLARVAMTPALRGKLELLDQRGCPPNFLELMKLIRDEEEWENTEAVMKNKEKPSGRGRGASGRQARAEASVSAPQATVQARSFSDSSPQTIQGGLPPLVKRRRLLGSESTRGEDHGQATYPKAENQTPGREGPQAAGEELGNEAGAGAMSHPKPWET
notes: Capsids were purified from E. coli
Regarding B5, the binding result in data set [3] was “binds”.

B6: PNMA6A (other)
chain: MAVTMLQDWCRWMGVNARRGLLILGIPEDCDDAEFQESLEAALRPMGHFTVLGKAFREEDNATAALVELDREVNYALVPREIPGTGGPWNVVFVPRCSGEEFLGLGRVFHFPEQEGQMVESVAGALGVGLRRVCWLRSIGQAVQPWVEAVRCQSLGVFSGRDQPAPGEESFEVWLDHTTEMLHVWQGVSERERRRRLLEGLRGTALQLVHALLAENPARTAQDCLAALAQVFGDNESQATIRVKCLTAQQQSGERLSAFVLRLEVLLQKAMEKEALARASADRVRLRQMLTRAHLTEPLDEALRKLRMAGRSPSFLEMLGLVRESEAWEASLARSVRAQTQEGAGARAGAQAVARASTKVEAVPGGPGREPEGLLQAGGQEAEELLQEGLKPVLEECDN
For B6, the binding result in data set [1] is “binds”.
